Measurements published in US20180273635A1 (Zymeworks, published 2018).
Read-outs that look alike come from different tables or passages of the source.

Tests used:
Recombinant human HER2 [1] = molecular target: T1, Recombinant human HER2 (human, UniProt P04626 23-652); test: SPR, variant captured on anti-human Fc, HER2 flowed, 25 C, post-SEC
T1 construct: extracellular domain; analyte of the SPR assays; also called HER2 ECD; ECD2 of HER2
Protocol: (§1) The affinity towards HER2 ECD of the samples was measured by SPR on a Biacore T200 as follows. Between 2000 and 4000 RU of anti-human Fc injected at concentration between 5 and 10 μg/ml was immobilized on a CM5 chip using standard amine coupling. Antigen-binding constructs were captured on the anti-human Fc (injected at concentration at 0.51 microg/mL in PBST, 1 min at 10 microl/min) at response levels ranging from 120-270 RU. […] HER2 dilutions were analyzed in duplicates. Sensograms were fit globally to a 1: 1 Langmuir binding model, using the software provided with the Biacore T200. All experiments were conducted at 25° C.
(§2) The affinity of antigen-binding constructs in OA format was determined by SPR following protein A purification. […] Antigen-binding constructs in FSA format were purified by protein A affinity and SEC prior to assessment of affinity by SPR.

Recombinant human HER2 [2] = molecular target: T1, Recombinant human HER2; test: SPR, variant captured on anti-human Fc, HER2 flowed, 25 C, pre-SEC
Protocol: as §1

Recombinant human HER2 [3] = molecular target: T1, Recombinant human HER2; test: SPR, post-SEC; ratio to WT v10013
Protocol: as §1, §2

Recombinant human HER2 [4] = molecular target: T1, Recombinant human HER2; test: SPR, pre-SEC; ratio to WT v10013
Protocol: as §1, §2

Recombinant human HER2 [5] = molecular target: T2, Recombinant human HER2 (human, UniProt P04626 23-652); test: SPR at 25 C of the OA variant, equilibrium association constant
T2 construct: extracellular domain; Analyte of the SPR assays; also called HER2 ECD; ECD2 of HER2
Protocol: as §1

Recombinant human HER2 [6] = molecular target: T2, Recombinant human HER2; test: SPR, Biacore T200, 25 C; variant captured on anti-human Fc, HER2 flowed;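 further: HER2 extracellular domain analyte run as duplicate dilutions over amine-coupled anti-Fc on a CM5 chip, rates from global sensorgram fitting with a 1:1 Langmuir model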
Recombinant human HER2 [7] = molecular target: T2, Recombinant human HER2; test: SPR at 25 C of the OA variant, logarithm of the association constant
Protocol: as §1

Recombinant human HER2 [8] = molecular target: T2, Recombinant human HER2; test: as above; remark: listed apart in the source
Protocol: as §1

Recombinant human HER2 [9] = molecular target: T2, Recombinant human HER2; test: calculated from the SPR Ka ratio to WT v10013;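 further: SPR at 25 °C with constructs captured on an anti-human Fc chip and HER2 extracellular domain as analyte, kinetics fitted to a 1:1 Langmuir model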
Protocol: as §1

Recombinant human HER2 [10] = molecular target: T2, Recombinant human HER2; test: SPR, 25 C; Ka ratio to WT v10013;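 further: constructs captured via anti-human Fc on CM5 chip, HER2 ECD as analyte in duplicate dilutions, sensorgrams globally fit to 1:1 Langmuir model on Biacore T200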
Recombinant human HER2 [11] = molecular target: T2, Recombinant human HER2; test: SPR at 25 C of the OA variant, equilibrium association constant; remark: listed apart in the source
Protocol: as §1

Binder	Kd (Recombinant human HER2 [1]) [nM]	Kd (Recombinant human HER2 [2]) [nM]	Ka, mut/Ka, WT (Recombinant human HER2 [3])	Ka, mut/Ka, WT (Recombinant human HER2 [4])	Ka (Recombinant human HER2 [5]) [M⁻¹]	Kd (Recombinant human HER2 [6]) [nM]	koff (Recombinant human HER2 [6]) [s⁻¹]	kon (Recombinant human HER2 [6]) [M⁻¹ s⁻¹]	Log Ka (Recombinant human HER2 [7])	Log Ka (Recombinant human HER2 [8])	ΔΔG (Recombinant human HER2 [9]) [kcal/mol]	Ka, mut/Ka, WT (Recombinant human HER2 [10]) [fold]	Ka (Recombinant human HER2 [11]) [M⁻¹]
variant 10014 (antibody, OA format; combines the mutations of 12610 and 12611; also called v10014) heavy: EVQLVESGGGLVQPGGSLRLSCAASGFTFADYTMDWVRQAPGKGLEWVADVNPNSGGSIYNQRFKGRFTLSVDRSKNTLYLQMNSLRAEDTAVYYCARNLGPSFYFDYWGQGTLVTVSSASTKGPSVFPLAPSSKSTSGGTAALGCLVKDYFPEPVTVSWNSGALTSGVHTFPAVLQSSGLYSLSSVVTVPSSSLGTQTYICNVNHKPSNTKVDKKVEPKSCDKTHTCPPCPAPELLGGPSVFLFPPKPKDTLMISRTPEVTCVVVDVSHEDPEVKFNWYVDGVEVHNAKTKPREEQYNSTYRVVSVLTVLHQDWLNGKEYKCKVSNKALPAPIEKTISKAKGQPREPQVYVYPPSRDELTKNQVSLTCLVKGFYPSDIAVEWESNGQPENNYKTTPPVLDSDGSFALVSKLTVDKSRWQQGNVFSCSVMHEALHNHYTQKSLSLSPG light: not shown Fc: not shown	2.6	2.5	8	7.9	–	–	–	–	–	–	–	–	–
variant 12529 (antibody, human IgG1, kappa, also called v12529) heavy: EVQLVESGGGLVQPGGSLRLSCAASGFTFTDYTMDWVRQAPGKGLEWVADVNPNSGGSIYNQRFKGRFTLSVDRSKNTLYLQMNSLRAEDTAVYYCARNLGPSFYFDYWGQGTLVTVSSASTKGPSVFPLAPSSKSTSGGTAALGCLVKDYFPEPVTVSWNSGALTSGVHTFPAVLQSSGLYSLSSVVTVPSSSLGTQTYICNVNHKPSNTKVDKKVEPKSCDKTHTCPPCPAPELLGGPSVFLFPPKPKDTLMISRTPEVTCVVVDVSHEDPEVKFNWYVDGVEVHNAKTKPREEQYNSTYRVVSVLTVLHQDWLNGKEYKCKVSNKALPAPIEKTISKAKGQPREPQVYVYPPSRDELTKNQVSLTCLVKGFYPSDIAVEWESNGQPENNYKTTPPVLDSDGSFALVSKLTVDKSRWQQGNVFSCSVMHEALHNHYTQKSLSLSPG light: not shown not shown	9	9.2	2.3	2.1	–	–	–	–	–	–	–	–	–
variant 12533 (antibody, human IgG1, kappa, also called v12533) heavy: EVQLVESGGGLVQPGGSLRLSCAASGFTFTDYTMDWVRQAPGKGLEWVADVNPNSGGSIYNQRFKGRFTLSVDRSKNTLYLQMNSLRAEDTAVYYCARNLGPSFYFDYWGQGTLVTVSSASTKGPSVFPLAPSSKSTSGGTAALGCLVKDYFPEPVTVSWNSGALTSGVHTFPAVLQSSGLYSLSSVVTVPSSSLGTQTYICNVNHKPSNTKVDKKVEPKSCDKTHTCPPCPAPELLGGPSVFLFPPKPKDTLMISRTPEVTCVVVDVSHEDPEVKFNWYVDGVEVHNAKTKPREEQYNSTYRVVSVLTVLHQDWLNGKEYKCKVSNKALPAPIEKTISKAKGQPREPQVYVYPPSRDELTKNQVSLTCLVKGFYPSDIAVEWESNGQPENNYKTTPPVLDSDGSFALVSKLTVDKSRWQQGNVFSCSVMHEALHNHYTQKSLSLSPG light: DIQMTQSPSSLSASVGDRVTITCKASQDVSIGVAWYQQKPGKAPKLLIYSASYRYTGVPSRFSGSGSGTDFTLTISSLQPEDFATYYCQQYYIYPAAFGQGTKVEIKRTVAAPSVFIFPPSDEQLKSGTASVVCLLNNFYPREAKVQWKVDNALQSGNSQESVTEQDSKDSTYSLSSTLTLSKADYEKHKVYACEVTHQGLSSPVTKSFNRGEC not shown	7.2	6.2	2.9	3.2	–	–	–	–	–	–	–	–	–
Variant 14043 (antibody, human IgG1, kappa, OA (one-armed) format; clones 8775, 7919, 4372; also called v14043) heavy: EVQLVESGGGLVQPGGSLRLSCAASGFTFQDYTMDWVRQAPGKGLEWVADVNPNSGGSIYNQRFKGRFTLSVDRSWNTLYLQMNSLRAEDTAVYYCARNLGPSFYFDYWGQGTLVTVSSASTKGPSVFPLAPSSKSTSGGTAALGCLVKDYFPEPVTVSWNSGALTSGVHTFPAVLQSSGLYSLSSVVTVPSSSLGTQTYICNVNHKPSNTKVDKKVEPKSCDKTHTCPPCPAPELLGGPSVFLFPPKPKDTLMISRTPEVTCVVVDVSHEDPEVKFNWYVDGVEVHNAKTKPREEQYNSTYRVVSVLTVLHQDWLNGKEYKCKVSNKALPAPIEKTISKAKGQPREPQVYVYPPSRDELTKNQVSLTCLVKGFYPSDIAVEWESNGQPENNYKTTPPVLDSDGSFALVSKLTVDKSRWQQGNVFSCSVMHEALHNHYTQKSLSLSPG light: not shown not shown	–	–	–	–	5.3e+09	~0.19	~1.4e-05	73000	9.7	9.7	-2.7	~102	5.3e+09
Variant 14055 (antibody, human IgG1, kappa, OA (one-armed) format; clones 8784, 7919, 4372; also called v14055) heavy: EVQLVESGGGLVQPGGSLRLSCAASGFTFQDYTMDWVRQAPGKGLEWVADVNPNSGGSIYNQRFKGRFTLSVDRSWNTLYLQMNSLRAEDTAVYYCARNLGPWFYFDYWGQGTLVTVSSASTKGPSVFPLAPSSKSTSGGTAALGCLVKDYFPEPVTVSWNSGALTSGVHTFPAVLQSSGLYSLSSVVTVPSSSLGTQTYICNVNHKPSNTKVDKKVEPKSCDKTHTCPPCPAPELLGGPSVFLFPPKPKDTLMISRTPEVTCVVVDVSHEDPEVKFNWYVDGVEVHNAKTKPREEQYNSTYRVVSVLTVLHQDWLNGKEYKCKVSNKALPAPIEKTISKAKGQPREPQVYVYPPSRDELTKNQVSLTCLVKGFYPSDIAVEWESNGQPENNYKTTPPVLDSDGSFALVSKLTVDKSRWQQGNVFSCSVMHEALHNHYTQKSLSLSPG light: not shown not shown	–	–	–	–	4.7e+09	~0.21	~1.6e-05	73000	9.7	9.7	-2.6	~77	4.7e+09
Variant 14025 (antibody, human IgG1, kappa, OA (one-armed) format; clones 8775, 1811, 4372; also called v14025) heavy: EVQLVESGGGLVQPGGSLRLSCAASGFTFQDYTMDWVRQAPGKGLEWVADVNPNSGGSIYNQRFKGRFTLSVDRSWNTLYLQMNSLRAEDTAVYYCARNLGPSFYFDYWGQGTLVTVSSASTKGPSVFPLAPSSKSTSGGTAALGCLVKDYFPEPVTVSWNSGALTSGVHTFPAVLQSSGLYSLSSVVTVPSSSLGTQTYICNVNHKPSNTKVDKKVEPKSCDKTHTCPPCPAPELLGGPSVFLFPPKPKDTLMISRTPEVTCVVVDVSHEDPEVKFNWYVDGVEVHNAKTKPREEQYNSTYRVVSVLTVLHQDWLNGKEYKCKVSNKALPAPIEKTISKAKGQPREPQVYVYPPSRDELTKNQVSLTCLVKGFYPSDIAVEWESNGQPENNYKTTPPVLDSDGSFALVSKLTVDKSRWQQGNVFSCSVMHEALHNHYTQKSLSLSPG light: not shown not shown	–	–	–	–	2.5e+09	~0.4	~2.6e-05	65000	9.4	9.4	-2.2	~41	2.5e+09
Variant 14050 (antibody, human IgG1, kappa, OA (one-armed) format; clones 8780, 7919, 4372; also called v14050) heavy: EVQLVESGGGLVQPGGSLRLSCAASGFTFQDYTMDWVRQAPGKGLEWVADVNPNSGGSIYNQRFKGRFTLSVDRSKNTLYLQMNSLRAEDTAVYYCARNLGPWFYFDYWGQGTLVTVSSASTKGPSVFPLAPSSKSTSGGTAALGCLVKDYFPEPVTVSWNSGALTSGVHTFPAVLQSSGLYSLSSVVTVPSSSLGTQTYICNVNHKPSNTKVDKKVEPKSCDKTHTCPPCPAPELLGGPSVFLFPPKPKDTLMISRTPEVTCVVVDVSHEDPEVKFNWYVDGVEVHNAKTKPREEQYNSTYRVVSVLTVLHQDWLNGKEYKCKVSNKALPAPIEKTISKAKGQPREPQVYVYPPSRDELTKNQVSLTCLVKGFYPSDIAVEWESNGQPENNYKTTPPVLDSDGSFALVSKLTVDKSRWQQGNVFSCSVMHEALHNHYTQKSLSLSPG light: not shown not shown	–	–	–	–	6.2e+08	1.6	7.4e-05	46000	8.8	8.8	-1.5	12	6.2e+08
Variant 14032 (antibody, human IgG1, kappa, OA (one-armed) format; clones 8780, 1811, 4372; also called v14032) heavy: EVQLVESGGGLVQPGGSLRLSCAASGFTFQDYTMDWVRQAPGKGLEWVADVNPNSGGSIYNQRFKGRFTLSVDRSKNTLYLQMNSLRAEDTAVYYCARNLGPWFYFDYWGQGTLVTVSSASTKGPSVFPLAPSSKSTSGGTAALGCLVKDYFPEPVTVSWNSGALTSGVHTFPAVLQSSGLYSLSSVVTVPSSSLGTQTYICNVNHKPSNTKVDKKVEPKSCDKTHTCPPCPAPELLGGPSVFLFPPKPKDTLMISRTPEVTCVVVDVSHEDPEVKFNWYVDGVEVHNAKTKPREEQYNSTYRVVSVLTVLHQDWLNGKEYKCKVSNKALPAPIEKTISKAKGQPREPQVYVYPPSRDELTKNQVSLTCLVKGFYPSDIAVEWESNGQPENNYKTTPPVLDSDGSFALVSKLTVDKSRWQQGNVFSCSVMHEALHNHYTQKSLSLSPG light: not shown not shown	–	–	–	–	1.3e+09	0.79	3.9e-05	49000	9.1	9.1	-1.8	21	1.3e+09
